To fix the notation:
B1: LINE1-full (parent)
chain: UACGUAGGUGGUUUUCCCCUGAUAGUGCUAAGGGGGCCUGGAAGUUUGGACUGGGCAGAGCUCAACACAGCGUGGCAAAGUGGCUGUGGCUAGACUGCCUCUCUGGAUUCCUCGUCACUCAGCAGGGCAUCUCUGAGAGAAAUGCC

The series covers variants of B1. Briefly: self-cleavage, relative activity (ratio to wild type); higher = more cleavage; in vitro, sequencing; the parent is a self-cleaving ribozyme.
Regarding UACGUAGGUGGUUUUCCCCUGAUAGUGCUAAGGGGGCCUGGAAGUUUGGACUGGGCAGAGCUCAACACAGCGUGGCAAAGUGGCUGUGGCUAGACUGCCUCUCUGGAUUCCUCGUCACCCAGAAGGGCAUCUCUGAGAGAAAUGCC [U119C C123A], the self-cleavage was found to be 1.36.
The value for UACGUAGGUGGUUUUCCCCUGAUAGUGCUAAGGGGGCCUGGAAGUUUGGACUGGGCAGAGCUCAACACAGCGUGGCAAAGUGGCUGUGGCUAGACUGCCUCUCUGGAUUCCUCGUCAUUCAGCAGGGCGUCUCUGAGAGAAAUGCC [C118U A129G] was 1.81.
The same measure for UACGUAGGUGGUUUUCCCCUGAUAGUGCUAAGGGGGCCUGGAAGUUUGGACUGGGCAGAGCUCAACACAGCGUGGCAAAGUGGCUGUGGCUAGACUGCCUCUCUGGAUUCCUCGUCACCCAGCAGGGCGUCUCUGAGAGAAAUGCC [U119C A129G]: 1.88.
The value for UACGUAGGUGGUUUUCCCCUGAUAGUGCUAAGGGGGCCUGGAAGUUUGGACUGGGCAGAGCUCAACACAGCGUGGCAAAGUGGCUGUGGCUAGACUGCCUCUCUGGAUUCCUCGUCAAUCAGCAUGGCAUCUCUGAGAGAAAUGCC [C118A G125U] was 1.03.
Regarding UACGUAGGUGGUUUUCCCCUGAUAGUGCUAAGGGGGCCUGGAAGUUUGGACUGGGCAGAGCUCAACACAGCGUGGCAAAGUGGCUGUGGCUAGACUGCCUCUCUGGAUUCCUCGUCAUUCAGCAGGGCAUCUCUGAGAGAUAUGCC [C118U A141U], the self-cleavage was found to be 1.6.
The value for UACGUAGGUGGUUUUCCCCUGAUAGUGCUAAGGGGGCCUGGAAGUUUGGACUGGGCAGAGCUCAACACAGCGUGGCAAAGUGGCUGUGGCUAGACUGCCUCUCUGGAUUCCUCGUCAUUCAGCAGGGCAUCUCUGAGAGAGAUGCC [C118U A141G] was 1.8.
For the variant UACGUAGGUGGUUUUCCCCUGAUAGUGCUAAGGGGGCCUGGAAGUUUGGACUGGGCAGAGCUCAACACAGCGUGGCAAAGUGGCUGUGGCUAGACUGCCUCUCUGGAUUCCUCGUCAUUCAGCAGGGCAUCUCUGAGAGAAAUGUC [C118U C145U], the self-cleavage was determined as 0.86.
Consider UACGUAGGUGGUUUUCCCCUGAUAGUGCUAAGGGGGCCUGGAAGUUUGGACUGGGCAGAGCUCAACACAGCGUGGCAAAGUGGCUGUGGCUAGACUGCCUCUCUGGAUUCCUCGUCACACAGCAGGGCAUCUCUGGGAGAAAUGCC [U119A A136G], for which the self-cleavage came out at 1.12.
The same measure for UACGUAGGUGGUUUUCCCCUGAUAGUGCUAAGGGGGCCUGGAAGUUUGGACUGGGCAGAGCUCAACACAGCGUGGCAAAGUGGCUGUGGCUAGACUGCCUCUCUGGAUUCCUCGUCACACAGCAGGGCAUCCCUGAGAGAAAUGCC [U119A U132C]: 1.96; for UACGUAGGUGGUUUUCCCCUGAUAGUGCUAAGGGGGCCUGGAAGUUUGGACUGGGCAGAGCUCAACACAGCGUGGCAAAGUGGCUGUGGCUAGACUGCCUCUCUGGAUUCCUCGUCACCCAGCAGGGCAUCUCUGAGAGUAAUGCC [U119C A140U]: 0.97.
With UACGUAGGUGGUUUUCCCCUGAUAGUGCUAAGGGGGCCUGGAAGUUUGGACUGGGCAGAGCUCAACACAGCGUGGCAAAGUGGCUGUGGCUAGACUGCCUCUCUGGAUUCCUCGUCAAUCAGCAGGGCAUCUCUGAGAGAAGUGCC [C118A A142G], the self-cleavage amounted to 1.41.
The value for UACGUAGGUGGUUUUCCCCUGAUAGUGCUAAGGGGGCCUGGAAGUUUGGACUGGGCAGAGCUCAACACAGCGUGGCAAAGUGGCUGUGGCUAGACUGCCUCUCUGGAUUCCUCGUCACACAGCAGGGCAUCUCUGAGAGUAAUGCC [U119A A140U] was 1.69.
The same measure for UACGUAGGUGGUUUUCCCCUGAUAGUGCUAAGGGGGCCUGGAAGUUUGGACUGGGCAGAGCUCAACACAGCGUGGCAAAGUGGCUGUGGCUAGACUGCCUCUCUGGAUUCCUCGUCACACAGCAGGGCAUCUCUGAGAGGAAUGCC [U119A A140G]: 1.29; for UACGUAGGUGGUUUUCCCCUGAUAGUGCUAAGGGGGCCUGGAAGUUUGGACUGGGCAGAGCUCAACACAGCGUGGCAAAGUGGCUGUGGCUAGACUGCCUCUCUGGAUUCCUCGUCACACAGCAGGGCAUCUCUGAGAGAAAUACC [U119A G144A]: 1.68; for UACGUAGGUGGUUUUCCCCUGAUAGUGCUAAGGGGGCCUGGAAGUUUGGACUGGGCAGAGCUCAACACAGCGUGGCAAAGUGGCUGUGGCUAGACUGCCUCUCUGGAUUCCUCGUCAAUCAGCAGGGCAUCCCUGAGAGAAAUGCC [C118A U132C]: 1.
The value for UACGUAGGUGGUUUUCCCCUGAUAGUGCUAAGGGGGCCUGGAAGUUUGGACUGGGCAGAGCUCAACACAGCGUGGCAAAGUGGCUGUGGCUAGACUGCCUCUCUGGAUUCCUCGUCAAUCAGCAGGGCAUCUCUGAGUGAAAUGCC [C118A A138U] was 1.47; that for UACGUAGGUGGUUUUCCCCUGAUAGUGCUAAGGGGGCCUGGAAGUUUGGACUGGGCAGAGCUCAACACAGCGUGGCAAAGUGGCUGUGGCUAGACUGCCUCUCUGGAUUCCUCGUCACACAGCAGGGCGUCUCUGAGAGAAAUGCC [U119A A129G] was 1.45; that for UACGUAGGUGGUUUUCCCCUGAUAGUGCUAAGGGGGCCUGGAAGUUUGGACUGGGCAGAGCUCAACACAGCGUGGCAAAGUGGCUGUGGCUAGACUGCCUCUCUGGAUUCCUCGUCACACAGCAGGGCAUCUCUGAGAGAAAAGCC [U119A U143A] was 1.16.
For UACGUAGGUGGUUUUCCCCUGAUAGUGCUAAGGGGGCCUGGAAGUUUGGACUGGGCAGAGCUCAACACAGCGUGGCAAAGUGGCUGUGGCUAGACUGCCUCUCUGGAUUCCUCGUCAUUCAGCAGGGCAUCUCAGAGAGAAAUGCC [C118U U134A], the self-cleavage stood at 1.11.
The same measure for UACGUAGGUGGUUUUCCCCUGAUAGUGCUAAGGGGGCCUGGAAGUUUGGACUGGGCAGAGCUCAACACAGCGUGGCAAAGUGGCUGUGGCUAGACUGCCUCUCUGGAUUCCUCGUCUCUCAGCAGGGCAUCACUGAGAGAAAUGCC [A117U U132A]: 1.32; for UACGUAGGUGGUUUUCCCCUGAUAGUGCUAAGGGGGCCUGGAAGUUUGGACUGGGCAGAGCUCAACACAGCGUGGCAAAGUGGCUGUGGCUAGACUGCCUCUCUGGAUUCCUCGUCAUUCAGCUGGGCAUCUCUGAGAGAAAUGCC [C118U A124U]: 1.04.
The same measure for UACGUAGGUGGUUUUCCCCUGAUAGUGCUAAGGGGGCCUGGAAGUUUGGACUGGGCAGAGCUCAACACAGCGUGGCAAAGUGGCUGUGGCUAGACUGCCUCUCUGGAUUCCUCGUCACCCGGCAGGGCAUCUCUGAGAGAAAUGCC [U119C A121G]: 1.23; for UACGUAGGUGGUUUUCCCCUGAUAGUGCUAAGGGGGCCUGGAAGUUUGGACUGGGCAGAGCUCAACACAGCGUGGCAAAGUGGCUGUGGCUAGACUGCCUCUCUGGAUUCCUCGUCAUUCAGCAGGGCACCUCUGAGAGAAAUGCC [C118U U130C]: 0.97; for UACGUAGGUGGUUUUCCCCUGAUAGUGCUAAGGGGGCCUGGAAGUUUGGACUGGGCAGAGCUCAACACAGCGUGGCAAAGUGGCUGUGGCUAGACUGCCUCUCUGGAUUCCUCGUCACCCAGCAGGGCAUCUCUGAGAGAAAUGCC [U119C]: 1.59.
The value for UACGUAGGUGGUUUUCCCCUGAUAGUGCUAAGGGGGCCUGGAAGUUUGGACUGGGCAGAGCUCAACACAGCGUGGCAAAGUGGCUGUGGCUAGACUGCCUCUCUGGAUUCCUCGUCACACAGCAGGGCAUCUCUGAGAGAAAUGCC [U119A] was 1.44; that for UACGUAGGUGGUUUUCCCCUGAUAGUGCUAAGGGGGCCUGGAAGUUUGGACUGGGCAGAGCUCAACACAGCGUGGCAAAGUGGCUGUGGCUAGACUGCCUCUCUGGAUUCCUCGUCACACAGCAGGGCAUCUCUGAGAGAGAUGCC [U119A A141G] was 1.74.
As to UACGUAGGUGGUUUUCCCCUGAUAGUGCUAAGGGGGCCUGGAAGUUUGGACUGGGCAGAGCUCAACACAGCGUGGCAAAGUGGCUGUGGCUAGACUGCCUCUCUGGAUUCCUCGUCAUUCAGCAGGGCAUCUCUGAGAGAAACGCC [C118U U143C], the self-cleavage stood at 0.87.
The value for UACGUAGGUGGUUUUCCCCUGAUAGUGCUAAGGGGGCCUGGAAGUUUGGACUGGGCAGAGCUCAACACAGCGUGGCAAAGUGGCUGUGGCUAGACUGCCUCUCUGGAUUCCUCGUCACACGGCAGGGCAUCUCUGAGAGAAAUGCC [U119A A121G] was 1.27.
The same measure for UACGUAGGUGGUUUUCCCCUGAUAGUGCUAAGGGGGCCUGGAAGUUUGGACUGGGCAGAGCUCAACACAGCGUGGCAAAGUGGCUGUGGCUAGACUGCCUCUCUGGAUUCCUCGUCAAUCAGCAGGGCGUCUCUGAGAGAAAUGCC [C118A A129G]: 1.1; for UACGUAGGUGGUUUUCCCCUGAUAGUGCUAAGGGGGCCUGGAAGUUUGGACUGGGCAGAGCUCAACACAGCGUGGCAAAGUGGCUGUGGCUAGACUGCCUCUCUGGAUUCCUCGUCACACAGCAGGGCAUCUCUGAGGGAAAUGCC [U119A A138G]: 2.02.
The same measure for UACGUAGGUGGUUUUCCCCUGAUAGUGCUAAGGGGGCCUGGAAGUUUGGACUGGGCAGAGCUCAACACAGCGUGGCAAAGUGGCUGUGGCUAGACUGCCUCUCUGGAUUCCUCGUCAUUCAGCAGGGCAUCCCUGAGAGAAAUGCC [C118U U132C]: 1.81.
UACGUAGGUGGUUUUCCCCUGAUAGUGCUAAGGGGGCCUGGAAGUUUGGACUGGGCAGAGCUCAACACAGCGUGGCAAAGUGGCUGUGGCUAGACUGCCUCUCUGGAUUCCUCGUCAGUCAGCAGGGCAUCACUGAGAGAAAUGCC [C118G U132A]: the self-cleavage amounted to 1.21.
The value for UACGUAGGUGGUUUUCCCCUGAUAGUGCUAAGGGGGCCUGGAAGUUUGGACUGGGCAGAGCUCAACACAGCGUGGCAAAGUGGCUGUGGCUAGACUGCCUCUCUGGAUUCCUCGUCAUUCGGCAGGGCAUCUCUGAGAGAAAUGCC [C118U A121G] was 1.58.
The value for UACGUAGGUGGUUUUCCCCUGAUAGUGCUAAGGGGGCCUGGAAGUUUGGACUGGGCAGAGCUCAACACAGCGUGGCAAAGUGGCUGUGGCUAGACUGCCUCUCUGGAUUCCUCGUCACCCAGCAGGGCAUCUCUGAGAGACAUGCC [U119C A141C] was 1.84; that for UACGUAGGUGGUUUUCCCCUGAUAGUGCUAAGGGGGCCUGGAAGUUUGGACUGGGCAGAGCUCAACACAGCGUGGCAAAGUGGCUGUGGCUAGACUGCCUCUCUGGAUUCCUCGUCACCCAGCAGGGCAUCUCUGAGAGAUAUGCC [U119C A141U] was 2.27.
The value for UACGUAGGUGGUUUUCCCCUGAUAGUGCUAAGGGGGCCUGGAAGUUUGGACUGGGCAGAGCUCAACACAGCGUGGCAAAGUGGCUGUGGCUAGACUGCCUCUCUGGAUUCCUCGUCACACAGCAGGGCAUCUCUGAGAGAACUGCC [U119A A142C] was 1.95; that for UACGUAGGUGGUUUUCCCCUGAUAGUGCUAAGGGGGCCUGGAAGUUUGGACUGGGCAGAGCUCAACACAGCGUGGCAAAGUGGCUGUGGCUAGACUGCCUCUCUGGAUUCCUCGUCUCUCAGCAGGGCAUCUCUGAGAGAAAAGCC [A117U U143A] was 1.23; that for UACGUAGGUGGUUUUCCCCUGAUAGUGCUAAGGGGGCCUGGAAGUUUGGACUGGGCAGAGCUCAACACAGCGUGGCAAAGUGGCUGUGGCUAGACUGCCUCUCUGGAUUCCUCGUCACACAACAGGGCAUCUCUGAGAGAAAUGCC [U119A G122A] was 1.35.
In the case of UACGUAGGUGGUUUUCCCCUGAUAGUGCUAAGGGGGCCUGGAAGUUUGGACUGGGCAGAGCUCAACACAGCGUGGCAAAGUGGCUGUGGCUAGACUGCCUCUCUGGAUUCCUCGUCACCCAGCAGGGCAUCUCUGAGUGAAAUGCC [U119C A138U], the self-cleavage came to 1.67.
